Measured values taken from US20220119534A1 (DRAGONFLY THERAPEUTICS, published 2022).
Several values for one entry are separate records, joined by “and”; a condition that tells them apart may be missing. Equal values may be shown once.

T1: Human CLEC12A-His (recombinant, K244 WT) (human, UniProt Q5QGZ9 65-265)
T1 construct: Made in house (Dragonfly Tx); also called hCLEC12A; hCLEC12A-His; not shown: His tag
T1 sequence: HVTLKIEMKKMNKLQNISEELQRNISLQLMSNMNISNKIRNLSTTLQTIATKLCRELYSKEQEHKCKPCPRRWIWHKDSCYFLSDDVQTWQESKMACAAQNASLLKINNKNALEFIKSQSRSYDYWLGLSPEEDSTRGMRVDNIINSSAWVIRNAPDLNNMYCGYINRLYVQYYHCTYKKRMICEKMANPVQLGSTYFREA

T2: Human CLEC12A expressed on cells (Ba/F3-hCLEC12A, PL21, HL60) (human, UniProt Q5QGZ9 1-265)
T2 sequence: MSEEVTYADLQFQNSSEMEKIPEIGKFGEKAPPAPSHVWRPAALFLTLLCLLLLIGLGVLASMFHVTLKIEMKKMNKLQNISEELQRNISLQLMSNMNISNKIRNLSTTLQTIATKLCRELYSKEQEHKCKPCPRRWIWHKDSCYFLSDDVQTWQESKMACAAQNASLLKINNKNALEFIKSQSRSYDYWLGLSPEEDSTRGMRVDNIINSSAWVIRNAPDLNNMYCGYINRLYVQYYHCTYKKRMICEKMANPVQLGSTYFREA

T3: mFc-hNKG2D (recombinant mFc-tagged human NKG2D dimer) (human, UniProt P26718 73-216)
T3 construct: extracellular domain; Made in house; not shown: mouse Fc tag
T3 sequence (looked up): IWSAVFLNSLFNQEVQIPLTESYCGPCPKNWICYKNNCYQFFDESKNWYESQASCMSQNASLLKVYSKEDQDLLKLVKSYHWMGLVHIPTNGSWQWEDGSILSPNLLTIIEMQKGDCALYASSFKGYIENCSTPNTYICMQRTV

T4: Human CLEC12A-K244Q-His (human, UniProt Q5QGZ9 65-265)
T4 construct: also called hCLEC12A (Q244); CLEC12A (Q244); not shown: His tag
T4 chain: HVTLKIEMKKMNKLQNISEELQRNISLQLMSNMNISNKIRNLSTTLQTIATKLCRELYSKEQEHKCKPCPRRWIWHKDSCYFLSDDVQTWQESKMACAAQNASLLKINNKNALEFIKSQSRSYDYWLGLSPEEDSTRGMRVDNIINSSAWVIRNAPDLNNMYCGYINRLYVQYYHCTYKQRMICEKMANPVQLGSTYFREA


How the values were obtained:
[1] = target: T1, Human CLEC12A-His (recombinant, K244 WT); test: SPR, two-state fit; control sample
Method: (§1) Briefly, human Fc specific antibodies were covalently immobilized at a density ˜8000-10000 resonance units (RU) on carboxy methyl dextran matrix of a CM5 biosensor chip via amine-coupling chemistry to create an anti-hFc IgG chip. […] Association was monitored for 300 seconds and dissociation was monitored for 600 seconds. Surfaces were regenerated between cycles with three pulses of 10 mM glycine-HCl, pH 1.7 injected for 20 seconds at 100 μl/min. HBS-EP+ (1×) with 0.1 mg/ml BSA was used as running buffer throughout the experiment. Experiments were performed at physiological temperature of 37° C. To obtain kinetic rate constants and overall binding affinity, double-referenced data were fit to a two-state kinetic model using Biacore 8K Insight Evaluation software (Cytiva).

[2] = target: T2, Human CLEC12A expressed on cells …; test: cell-based or functional assay
[3] = target: T2, Human CLEC12A expressed on cells …; test: cell-based or functional assay; remark: listed apart in the source
[4] = target: T5, Human CD16a V158 (FcγRIIIa V158) (human, UniProt P08637 17-208, biotinylated); test: SPR; after pH 5.0, 40C, 2 wks
T5 construct: Bought recombinant receptor; also called hCD16aV; hFcγRIIIa V158
T5 sequence (P08637 17-208 F176V limits assumed): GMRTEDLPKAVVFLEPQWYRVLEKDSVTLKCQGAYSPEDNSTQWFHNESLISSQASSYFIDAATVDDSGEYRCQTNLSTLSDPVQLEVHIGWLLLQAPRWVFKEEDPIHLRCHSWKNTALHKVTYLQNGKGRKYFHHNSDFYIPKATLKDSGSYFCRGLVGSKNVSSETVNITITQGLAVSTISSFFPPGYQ

[5] = target: T3, mFc-hNKG2D (recombinant mFc-tagged …); test: SPR 37C, mFc-hNKG2D captured, steady state fit
Method: (§2) Briefly, mFc specific antibodies were covalently immobilized at a density of ˜8000-10000 RU on carboxy methyl dextran matrix of a CM5 biosensor chip via amine coupling chemistry to create an anti-mFc IgG chip. mFc-tagged human NKG2D was captured on the anti-mFc IgG chip at a concentration of 0.2 μg/mL at a flow rate 10 μL/min for 60 seconds to achieve approximately 30 RU capture level. […] Association was monitored for 60 seconds and dissociation was monitored for 60 seconds. Surfaces were regenerated between cycles with three pulses of 10 mM glycine-HCl, pH 1.7 injected for 20 seconds at 100 μl/min. HBS-EP+ (1×) was used as running buffer throughout the experiment. Experiments were performed at physiological temperature of 37° C. Double-referenced data were fit to a 1:1 kinetic and a Steady State interaction models using Biacore 8K Insight Evaluation software (GE Healthcare) with global fit analysis in the 1:1 kinetic fit model. Since the samples had been buffer exchanged into the running buffer prior to each experiment, offset for a steady state fit was set to constant (0). The goodness of the fit was expressed by the evaluation software as Chi² that was considered in the context of Rₘₐₓ value.

[6] = target: T3, mFc-hNKG2D (recombinant mFc-tagged …); test: SPR 37C, steady state fit, average
Method: as §2

Human CLEC12A-K244Q-His = target: T4, Human CLEC12A-K244Q-His; test: SPR, two-state fit (ka1)
Method: as §1

[7] = target: T1, Human CLEC12A-His (recombinant, K244 WT); test: SPR, two-state fit (ka1)
Method: as §1

Cynomolgus CD64 = target: T6, Cynomolgus CD64 (cynomolgus monkey, UniProt A0A2K5U901 33-309, Probably biotinylated for capture, as in the sister examples (p-1094).); test: SPR, cynomolgus CD64 captured
T6 construct: Bought recombinant receptor; also called cFcγRI; Cynomolgus CD64 (FcγRI); not shown: The vendor's biotinylation and purification tag
T6 sequence (A0A2K5U901 entry or part of it limits assumed): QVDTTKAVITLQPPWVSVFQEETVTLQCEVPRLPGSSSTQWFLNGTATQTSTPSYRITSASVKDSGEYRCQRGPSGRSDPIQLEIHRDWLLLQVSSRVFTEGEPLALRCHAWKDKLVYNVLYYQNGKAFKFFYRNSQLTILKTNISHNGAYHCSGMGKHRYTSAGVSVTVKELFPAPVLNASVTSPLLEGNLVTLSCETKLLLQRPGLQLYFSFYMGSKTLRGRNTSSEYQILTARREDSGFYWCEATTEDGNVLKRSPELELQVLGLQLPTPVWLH

Binder	Kd [1] [nM]	EC50, NK cell induction of IFNγ and CD107a in co-culture with PL21 cells (mean of three donors) [2] [nM]	EC50, NK cell induction of IFNγ and CD107a in co-culture with HL60 cells (mean of three donors) [3] [nM]	Kd [4] [nM]	koff [4] [s⁻¹]	kon [4] [M⁻¹ s⁻¹]	Kd [5]	Kd [6] [nM]	kon (Human CLEC12A-K244Q-His) [M⁻¹ s⁻¹]	kon [7] [M⁻¹ s⁻¹]	Kd (Cynomolgus CD64)	koff (Cynomolgus CD64)	kon (Cynomolgus CD64)
AB0089 TriNKET (bispecific antibody, human IgG1, kappa, F3' format heterodimer of three chains; human IgG1 Fc with EW-RVT and Y349C/S354C mutations; also called AB0089 Lot AB0089-002; CLEC12A TriNKET AB0089) QLQLQESGPGLVKPSETLSLTCTVSGFSLTNYGLHWIRQPPGKCLEWIGVIWVGGATDYNPSLKSRVTISVDTSKNQFSLKLSSVQAADTAVYYCAKGDYGDTLDYWGQGTLVTVSSGGGGSGGGGSGGGGSGGGGSDIQMTQSPSSLSASVGDRVTITCHASQNINFWLSWYQQKPGKAPKLLIYEASNLHTGVPSRFSGSGSGTDFTLTISSLQPEDFATYYCQQSHSYPLTFGCGTKLEIKGSDKTHTCPPCPAPELLGGPSVFLFPPKPKDTLMISRTPEVTCVVVDVSHEDPEVKFNWYVDGVEVHNAKTKPREEQYNSTYRVVSVLTVLHQDWLNGKEYKCKVSNKALPAPIEKTISKAKGQPREPRVYTLPPCRDELTKNQVSLTCLVKGFYPSDIAVEWESNGQPENNYKTTPPVLVSDGSFTLYSKLTVDKSRWQQGNVFSCSVMHEALHNHYTQKSLSLSPG heavy: EVQLVESGGGLVKPGGSLRLSCAASGFTFSSYSMNWVRQAPGKGLEWVSSISSSSSYIYYADSVKGRFTISRDNAKNSLYLQMNSLRAEDTAVYYCARGAPIGAAAGWFDPWGQGTLVTVSSASTKGPSVFPLAPSSKSTSGGTAALGCLVKDYFPEPVTVSWNSGALTSGVHTFPAVLQSSGLYSLSSVVTVPSSSLGTQTYICNVNHKPSNTKVDKKVEPKSCDKTHTCPPCPAPELLGGPSVFLFPPKPKDTLMISRTPEVTCVVVDVSHEDPEVKFNWYVDGVEVHNAKTKPREEQYNSTYRVVSVLTVLHQDWLNGKEYKCKVSNKALPAPIEKTISKAKGQPREPQVCTLPPSRDELTENQVSLTCLVKGFYPSDIAVEWESNGQPENNYKTTPPVLDSDGSFFLYSWLTVDKSRWQQGNVFSCSVMHEALHNHYTQKSLSLSPG light: DIQMTQSPSSVSASVGDRVTITCRASQGISSWLAWYQQKPGKAPKLLIYAASSLQSGVPSRFSGSGSGTDFTLTISSLQPEDFATYYCQQGVSFPRTFGGGTKVEIKRTVAAPSVFIFPPSDEQLKSGTASVVCLLNNFYPREAKVQWKVDNALQSGNSQESVTEQDSKDSTYSLSSTLTLSKADYEKHKVYACEVTHQGLSSPVTKSFNRGEC	0.9	0.08	0.05	383	0.0289	75400	873 nM and 894 nM and 885 nM	884	9.7e+06	1.63e+07			
AB0192 TriNKET (other, the condition stands under assay; also called AB0192 Lot AB0192-005) EVQLVESGGGVVQPGGSLRLSCAASGFTFNAFGMHWVRQAPGKCLEWVAFISSGSTSIYYANTVKGRFTISRDNSKNTLYLQMNSLRAEDTAVYYCARDGYPTGGAMDYWGQGTSVTVSSGGGGSGGGGSGGGGSGGGGSDIQMTQSPSSLSASVGDRVTITCKASQDIYNYLSWFQQKPGKAPKPLIYRANILVSGVPSRFSGSGSGQDYTFTISSLQPEDIATYYCLQFDAFPFTFGCGTKLEIKGSDKTHTCPPCPAPELLGGPSVFLFPPKPKDTLMISRTPEVTCVVVDVSHEDPEVKFNWYVDGVEVHNAKTKPREEQYNSTYRVVSVLTVLHQDWLNGKEYKCKVSNKALPAPIEKTISKAKGQPREPRVYTLPPCRDELTKNQVSLTCLVKGFYPSDIAVEWESNGQPENNYKTTPPVLVSDGSFTLYSKLTVDKSRWQQGNVFSCSVMHEALHNHYTQKSLSLSPG heavy: EVQLVESGGGLVKPGGSLRLSCAASGFTFSSYSMNWVRQAPGKGLEWVSSISSSSSYIYYADSVKGRFTISRDNAKNSLYLQMNSLRAEDTAVYYCARGAPIGAAAGWFDPWGQGTLVTVSSASTKGPSVFPLAPSSKSTSGGTAALGCLVKDYFPEPVTVSWNSGALTSGVHTFPAVLQSSGLYSLSSVVTVPSSSLGTQTYICNVNHKPSNTKVDKKVEPKSCDKTHTCPPCPAPELLGGPSVFLFPPKPKDTLMISRTPEVTCVVVDVSHEDPEVKFNWYVDGVEVHNAKTKPREEQYNSTYRVVSVLTVLHQDWLNGKEYKCKVSNKALPAPIEKTISKAKGQPREPQVCTLPPSRDELTENQVSLTCLVKGFYPSDIAVEWESNGQPENNYKTTPPVLDSDGSFFLYSWLTVDKSRWQQGNVFSCSVMHEALHNHYTQKSLSLSPG light: DIQMTQSPSSVSASVGDRVTITCRASQGISSWLAWYQQKPGKAPKLLIYAASSLQSGVPSRFSGSGSGTDFTLTISSLQPEDFATYYCQQGVSFPRTFGGGTKVEIKRTVAAPSVFIFPPSDEQLKSGTASVVCLLNNFYPREAKVQWKVDNALQSGNSQESVTEQDSKDSTYSLSSTLTLSKADYEKHKVYACEVTHQGLSSPVTKSFNRGEC											2.2 nM and 1.5 nM and 1.9 nM and 2.1 nM	0.00012 s⁻¹ and 0.00011 s⁻¹	54000 M⁻¹ s⁻¹ and 80000 M⁻¹ s⁻¹ and 57000 M⁻¹ s⁻¹ and 55000 M⁻¹ s⁻¹
